# Assay results from the RNAGym collection of RNA variant scans (doi:10.7554/elife.80360).
# B1: HDV Ribozyme (parent)
# chain: GGCCGGCAUGGUCCCAGCCUCCUCGCUGGCGCCGGCUGGGCAACAUUCCGAGGGGACCGUCCCCUCGGUAAUGGCGAAUGGGACCCA
# Variants of: B1
# Assay: self-cleavage, relative activity (ratio to wild type); higher = more cleavage; co-transcriptional
row,Variant,self-cleavage
1,G17U G35U,0.198
2,G17U G35A,0.133
3,G17U G35C,0.125
4,G17U U46A,0.111
5,G17U U46G,0.0554
6,G17C U69G,0.317
7,G17C U69A,0.453
8,G17C U69C,0.269
9,G17C U23G,0.123
10,G17C C26G,0.0852
11,G17C A71C,0.246
12,G17U G59C,0.432
13,G17U G59U,0.43
14,C18A,0.145
15,C18A U27A,0.131
16,G17C C62A,0.252
17,G17C C62G,0.0723
18,G17C G68A,0.297
19,G17C G68U,0.425
20,G17C G68C,0.227
21,C18A C48A,0.0369
22,G17C G59U,0.342
23,G17C C32A,0
24,G17U A42U,0.089

row,Variant,self-cleavage
1,G17U A42C,0.125
2,G17U A42G,0.0489
3,G17U G50A,0.466
4,G17C C36G,0.122
5,G17C C36U,0.0339
6,G17C C36A,0.0361
7,G17U C63G,0.509
8,G17C A87G,0.244
9,G17U C33U,0.326
10,G17U C66G,0.464
11,G17U C66A,0.684
12,G17U C66U,0.469
13,G17U A77C,0.166
14,C18A C24G,0.107
15,C18A C41A,0.125
16,C18A C41G,0.0554
17,G17C A42C,0.0723
18,G17C A42G,0
19,G17C A42U,0.158
20,G17A G80A,0.205
21,G17A G80U,0.198
22,G17U A56C,0.415
23,C18A A87G,0.0811
24,C18A A87C,0.134

row,Variant,self-cleavage
1,G17C G25C,0.0475
2,G17C G25A,0.131
3,G17U U27A,0.486
4,G17U U27G,0.522
5,G17U C57G,0.464
6,G17U C57U,0.415
7,G17U C18U,0.189
8,G17U C18A,0.0978
9,C18A G35C,0.147
10,C18A G35U,0.0604
11,G17C A70G,0.346
12,C18A G40U,0.0631
13,C18A G73U,0.0941
14,G17U G28U,0.0923
15,G17C C85G,0.185
16,G17C C85A,0.388
17,G17C C85U,0.156
18,G17U C19G,0
19,G17U C19U,0.199
20,G17U C19A,0.166
21,C18A G59A,0.228
22,C18A G59U,0.113
23,C18A G82U,0.0723
24,C18A C86G,0.185

row,Variant,self-cleavage
1,G17C U65C,0.529
2,C18A C64U,0.256
3,C18A C64G,0.0678
4,C18A U20G,0.249
5,C18A U20C,0
6,G17C C24U,0.106
7,G17A U79A,0.627
8,G17A U79C,0.514
9,G17U G39U,0.126
10,G17U G39C,0.0755
11,G17C G28A,0.0449
12,G17U A71C,0.383
13,G17U G34U,0.0554
14,G17U G34C,0.0692
15,C18A C62G,0.135
16,G17U U60A,0.494
17,G17U U60G,0.522
18,C18A G31U,0.141
19,C18A G31A,0.0898
20,C18A G55A,0.0314
21,G17C G38U,0.0898
22,G17U C21U,0.13
23,G17U C75U,0.181
24,G17U C75G,0.0594

row,Variant,self-cleavage
1,G17C G50C,0.324
2,C18A C57A,0.219
3,C18A C57G,0.208
4,G17U G55A,0.554
5,G17C A43U,0.115
6,G17C A43G,0
7,G17C A78C,0.0755
8,G17C A78U,0.18
9,G17C A78G,0.0536
10,G17U G38A,0.0755
11,G17C C19A,0.0519
12,G17C C19G,0
13,G17C C21G,0.145
14,C18A G34A,0.0326
15,C18A G34C,0.136
16,G17U,0.548
17,G17C,0.338
18,G17U A70C,0.246
19,C18A C22G,0.0811
20,C18A C22U,0.0378
21,G17A U72A,0.219
22,G17U A51U,0.491
23,C18A A78G,0.131
24,C18A A78C,0.0978

row,Variant,self-cleavage
1,G17U G82A,0.543
2,C18A C33A,0.121
3,G17C G40U,0.196
4,G17C G40A,0.19
5,G17U G52A,0.509
6,G17U G52C,0.591
7,C18A U46G,0.128
8,C18A U46C,0.095
9,C18A G28U,0
10,C18A G28A,0.128
11,G17U G25U,0.185
12,G17U G67U,0.609
13,G17U G67C,0.628
14,G17U G29U,0.0554
15,G17U G29C,0.0773
16,G17A G76A,0.787
17,G17U A83U,0.34
18,G17U U20G,0
19,C18A A56U,0.222
20,C18A A56C,0.0573
21,G17C C66U,0.156
22,G17U C49G,0.356
23,G17U C49U,0.356
24,G17C U20A,0.0573

row,Variant,self-cleavage
1,G17C C41U,0.0449
2,G17U C84A,0.445
3,G17U C84U,0.487
4,C18A C21G,0.131
5,G17C C48G,0.252
6,G17C C48A,0.388
7,G17A U47A,0.554
8,G17A U47C,0.587
9,G17C A56G,0.145
10,G17C U79C,0.427
11,G17C U79A,0.26
12,G17C U79G,0.128
13,C18A G50U,0.197
14,C18A G50C,0.219
15,C18A G50A,0.23
16,G17U C62A,0.429
17,G17U G54A,0.326
18,G17U G68U,0.611
19,G17U U37G,0.0831
20,G17U U37A,0.185
21,C18A G29A,0.0604
22,G17C G39A,0.113
23,G17C G39C,0.0462
